From patent US20110171178A1 (CUREDM GROUP, published 2011) come the findings set out here.

The target of the experiment is T1, HIP receptor (EXTL3) (human, UniProt O43909 1-919).
T1 construct: whole, on cells; Endogenous protein of PANC-1 cells, seen by immunostaining and Western blot; also called receptor for Human ProIslet Peptide
T1 sequence (looked up): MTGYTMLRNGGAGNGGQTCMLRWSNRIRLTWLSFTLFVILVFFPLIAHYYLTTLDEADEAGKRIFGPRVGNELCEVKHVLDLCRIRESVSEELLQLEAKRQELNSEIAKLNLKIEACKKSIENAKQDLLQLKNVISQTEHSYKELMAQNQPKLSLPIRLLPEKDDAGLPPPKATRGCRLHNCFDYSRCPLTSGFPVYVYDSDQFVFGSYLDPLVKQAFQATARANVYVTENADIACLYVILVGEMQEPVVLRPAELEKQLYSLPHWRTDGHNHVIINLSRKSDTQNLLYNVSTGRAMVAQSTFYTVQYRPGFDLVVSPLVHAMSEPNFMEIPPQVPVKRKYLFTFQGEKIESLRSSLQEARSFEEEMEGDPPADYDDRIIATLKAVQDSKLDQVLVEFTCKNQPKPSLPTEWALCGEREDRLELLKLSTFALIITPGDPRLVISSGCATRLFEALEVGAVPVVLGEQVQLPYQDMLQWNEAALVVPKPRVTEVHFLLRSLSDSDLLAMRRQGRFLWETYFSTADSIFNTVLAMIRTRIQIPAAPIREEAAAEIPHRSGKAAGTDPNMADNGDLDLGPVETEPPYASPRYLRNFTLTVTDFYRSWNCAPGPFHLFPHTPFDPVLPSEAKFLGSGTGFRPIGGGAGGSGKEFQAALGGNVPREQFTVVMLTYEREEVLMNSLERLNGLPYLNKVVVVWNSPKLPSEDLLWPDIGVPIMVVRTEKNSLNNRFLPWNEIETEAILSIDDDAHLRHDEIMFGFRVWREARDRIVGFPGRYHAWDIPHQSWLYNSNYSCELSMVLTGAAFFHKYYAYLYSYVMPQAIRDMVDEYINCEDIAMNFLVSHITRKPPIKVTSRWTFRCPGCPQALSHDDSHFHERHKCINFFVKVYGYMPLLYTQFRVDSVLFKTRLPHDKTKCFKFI
The experiment in a line: receptor immunostaining and trafficking in PANC-1 cells (indirect). Here is the method: The upper panels indicated by the Cy3 immunofluorescent staining of EXTL3 (red). In the lower panel of images the Cy3 immunostaining of EXTL3 has been overlaid with DAPI (blue) staining of the nuclei. Cells were grown in standard growth medium as a control and compared to cells grown serum-free medium (SFM) in the presence or absence of HIP. […] The cell borders are well-defined indicating surface expression of EXTL3 on the plasma membrane. The yellow arrows delineate the cell borders while the nuclei are shown in blue. The middle images are cells grown in SFM. EXTL3 is localized in the cytoplasm as indicated by cytoplasmic Cy3 staining. The green arrows show the lack of staining in the position of the nuclei. […] In the lower image of cells grown in SFM and HIP, the blue arrows indicate the position of the nuclei. In the lower image there is an overlap of EXTL3-Cy3 staining and nuclear DAPI staining that corroborates the nuclear localization of EXTL3 (blue arrows). Scale bar=20 μm in all images.

B1: HIP2Blocked (Ac-Ile-Gly-Leu-His-Asp-Pro-Thr-Gln-Gly-Thr-Glu-Pro-Asn-Gly-NH2) (peptide)
peptide: Ac-IGLHDPTQGTEPNG-NH2
notes: also called Optimized HIP2B
For B1, the binding result is “binds”.

B2: HIP2 (Human proIslet Peptide, Ile-Gly-Leu-His-Asp-Pro-Thr-Gln-Gly-Thr-Glu-Pro-Asn-Gly) (peptide)
peptide: IGLHDPTQGTEPNG
For the molecule B2, the binding result is “binds”.
